Reference: patent US20060029947A1 (University of Texas, published 2006)

Target: Bacillus anthracis protective antigen (PA) (Bacillus anthracis, UniProt P13423 30-764)
Sequence (P13423 30-764 limits assumed): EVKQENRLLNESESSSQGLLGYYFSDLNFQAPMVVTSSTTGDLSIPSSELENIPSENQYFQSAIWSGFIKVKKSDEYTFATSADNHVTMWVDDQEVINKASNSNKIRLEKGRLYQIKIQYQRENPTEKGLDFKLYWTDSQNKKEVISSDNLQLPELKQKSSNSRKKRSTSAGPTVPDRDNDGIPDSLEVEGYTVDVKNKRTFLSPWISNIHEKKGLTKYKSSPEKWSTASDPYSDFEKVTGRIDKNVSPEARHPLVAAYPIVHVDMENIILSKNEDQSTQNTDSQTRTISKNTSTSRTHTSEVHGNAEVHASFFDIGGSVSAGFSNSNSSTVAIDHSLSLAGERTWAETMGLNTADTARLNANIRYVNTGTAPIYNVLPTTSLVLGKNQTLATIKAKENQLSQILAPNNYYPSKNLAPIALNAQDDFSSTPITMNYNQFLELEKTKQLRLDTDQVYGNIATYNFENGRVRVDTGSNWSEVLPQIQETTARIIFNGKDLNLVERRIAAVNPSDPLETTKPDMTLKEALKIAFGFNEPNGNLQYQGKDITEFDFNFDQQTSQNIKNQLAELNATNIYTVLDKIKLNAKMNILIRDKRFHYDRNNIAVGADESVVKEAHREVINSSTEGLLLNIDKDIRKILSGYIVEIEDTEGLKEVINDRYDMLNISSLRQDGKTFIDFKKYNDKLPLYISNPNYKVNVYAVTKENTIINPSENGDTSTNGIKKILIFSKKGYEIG

B1: M18 with the Q55L substitution, scAb (scFv)
chain: DIQMTQTTSSLSASLGDRVTVSCRASQDIRNYLNWYQQKPDGTVKFLIYYTSRLLPGVPSRFSGSGSGTDYSLTINNLEQEDIGTYFCQQGNTPPWTFGGGTKLEIKRGGGGSDGGGSGGGGSGGGGSEVQLQQSGPELVKPGASVKISCKDSGYAFNSSWMNWVKQRPGQGLEWIGRIYPGDGDSNYNGKFEGKAILTADKSSSTAYMQLSSLTSVDSAVYFCARSGLLRYAMDYWGQGTSVTVSS
Kd: 0.021 nM
koff: 2.4e-05 s⁻¹
kon: 1.1e+06 M⁻¹ s⁻¹
